Reference: patent publication US20030114404, “Vascular endothelial growth factor (VEGF) nucleic acid ligand complexes” (Gilead Sciences, Inc., published 2003)
Where a chain is given by its changes, count along the chain named.

B1: VP30.12 (ssRNA)
RNA: GGGAGGACGAUGCGGAAUACGGAAGAAUUGGAUACAUAUGCUCGUCAGACGACUCGCCCGA
modifications: 2'-F pyrimidines
B2: VP30.54 (ssRNA)
RNA: GGGAGGACGAUGCGGAAGAAACGGAAGAAUUGGAGACACGCUCGUCAGACGACUCGCCCGA
modifications: 2'-F pyrimidines
B3: VT30.53 (ssRNA)
RNA: B2 RNA with A17G, G18C, A19U, G35A, C39A, G40C, U42G
modifications: 2'-F pyrimidines
B4: VT30.1 (ssRNA)
RNA: GGGAGGACGAUGCGGAACUAGUGAAUGCUUAUACGACCGUGUUGUCAGACGACUCGCCCGA
modifications: 2'-F pyrimidines
B5: VT30.29 (ssRNA)
RNA: B4 RNA with C18U, U19C, C34G, G35C, A36U, U40C, U43G
modifications: 2'-F pyrimidines
B6: VP40.9 (ssRNA)
RNA: GGGAGGACGAUGCGGGAGCAGAACCGAUAGAAGAAUUGGACGCUCAGCUCCGGGUCAGACGACUCGCCCGA
modifications: 2'-F pyrimidines
B7: VP30.31 (ssRNA)
RNA: GGGAGGACGAUGCGGUAACCGAUUGAACUUCUUGGACGCUACCGUCAGACGACUCGCCCGA
modifications: 2'-F pyrimidines
B8: VT30.27 (ssRNA)
RNA: GGGAGGACGAUGCGGGAUCACGGCUUUGCACGAUCUUCUUCUCCUCAGACGACUCGCCCGA
modifications: 2'-F pyrimidines
B9: VT30.8 (ssRNA)
RNA: GGGAGGACGAUGCGGUUGAUCGAUUUUCCUGGCGUCCUUAUGGGUCAGACGACUCGCCCGA
modifications: 2'-F pyrimidines
B10: VP30.16 (ssRNA)
RNA: GGGAGGACGAUGCGGAUGAUCGCGUAGGAAGUAUUGGAAGGCCCUCAGACGACUCGCCCGA
modifications: 2'-F pyrimidines
B11: VT30.38 (ssRNA)
RNA: GGGAGGACGAUGCGGAGCGGUAUUCUGUUCGGUCGUUUUCCUCCUCAGACGACUCGCCCGA
modifications: 2'-F pyrimidines
B12: VT30.23 (ssRNA)
RNA: GGGAGGACGAUGCGGGAUCACGAUACUUGACGAUUUUCCUCUCCUCAGACGACUCGCCCGA
modifications: 2'-F pyrimidines
B13: VT30.13 (ssRNA)
RNA: GGGAGGACGAUGCGGCAGGAUUUUGGAAGAAUUGGAUAUUGGCCGCAGACGACUCGCCCGA
modifications: 2'-F pyrimidines
B14: VP30.25 (ssRNA)
RNA: B13 RNA with A17G, G45U
modifications: 2'-F pyrimidines
B15: VT30.10 (ssRNA)
RNA: GGGAGGACGAUGCGGAACGGAAGAAUUGGAUACGUAGCAUGCGUCAGACGACUCGCCCGA
modifications: 2'-F pyrimidines
B16: VP40.14 (ssRNA)
RNA: GGGAGGACGAUGCGGGUACCAGAAUGAGCAACCGAAUGAAGAACUGGACGCUGCUCAGACGACUCGCCCGA
modifications: 2'-F pyrimidines
B17: VT30.4 (ssRNA)
RNA: GGGAGGACGAUGCGGCUUAAGUUUUGGAAGAAUUGAAUACUGGGUCAGACGACUCGCCCGA
modifications: 2'-F pyrimidines
B18: VT30.20 (ssRNA)
RNA: GGGAGGACGAUGCGGAAACGGAAGAAUUGGAUACCGCUACGUGUUCAGACGACUCGCCCGA
modifications: 2'-F pyrimidines
B19: VP40.4 (ssRNA)
RNA: GGGAGGACGAUGCGGGAAGAAUUGAUGUUGUAUUGUCCUUCCGAUUUCCUGCCGUCAGACGACUCGCCCGA
modifications: 2'-F pyrimidines
B20: VT30.18 (ssRNA)
RNA: GGGAGGACGAUGCGGUUCAGAAUUGGCUGCGAUCCUUUUCCCCCUCAGACGACUCGCCCGA
modifications: 2'-F pyrimidines
B21: VT30.7 (ssRNA)
RNA: GGGAGGACGAUGCGGUAACCAGUGGAAGAAUUGGCUGCUAUCCUCAGACGACUCGCCCGA
modifications: 2'-F pyrimidines
B22: VP30.43 (ssRNA)
RNA: GGGAGGACGAUGCGGUAACCGAAUUGAAGUUAUUGGACGCUACCUCAGACGACUCGCCCGA
modifications: 2'-F pyrimidines
B23: VT30.9 (ssRNA)
RNA: GGGAGGACGAUGCGGUCAACCGGUUGAAUAUUUGGUCGCUGACCUCAGACGACUCGCCCGA
modifications: 2'-F pyrimidines
B24: VP40.43 (ssRNA)
RNA: GGGAGGACGAUGCGGACAGAAGAAUUGGGCUUCGCAUUAUCCUCUGUCAGCCGCCAGACGACUCGCCCGA
modifications: 2'-F pyrimidines
B25: VP40.47 (ssRNA)
RNA: GGGAGGACGAUGCGGCAGUUAAUUAAUUUGAGUUGUGAUGUGUGUCGUUAUGGGCCAGACGACUCGCCCGA
modifications: 2'-F pyrimidines
B26: VP40.17 (ssRNA)
RNA: GGGAGGACGAUGCGGUGAACCGAUGGAAUCGCUUGGACGCUCAUCGCACGUUGCUCAGACGACUCGCCCGA
modifications: 2'-F pyrimidines
B27: VP40.53 (ssRNA)
RNA: GGGAGGACGAUGCGGUGAGAGAAACGGAAGAAUUGGAUACGAUACUCAUCGCGCUCAGACGACUCGCCCGA
modifications: 2'-F pyrimidines
B28: VT30.2 (ssRNA)
RNA: GGGAGGACGAUGCGGAUCAGUGAAUGCUUAUAGACCGCCUCCGUCAGACGACUCGCCCGA
modifications: 2'-F pyrimidines
B29: VT30.41 (ssRNA)
RNA: GGGAGGACGAUGCGGCAGGGUGAAUGCCAAUGUACUUUUCGCGUCAGACGACUCGCCCGA
modifications: 2'-F pyrimidines
B30: VT30.11 (ssRNA)
RNA: GGGAGGACGAUGCGGAAUCAGUGAAUGCUUAUAGCUCCCGCGUCCUCAGACGACUCGCCCGA
modifications: 2'-F pyrimidines
B31: VT30.15 (ssRNA)
RNA: GGGAGGACGAUGCGGAACCAGUGAAUGCUUAUAAGACUGCUCGUCAGACGACUCGCCCGA
modifications: 2'-F pyrimidines
B32: VP30.7 (ssRNA)
RNA: GGGAGGACGAUGCGGAAGAAUUGGUCAUCGUCGUCUCCGCCUCCCCAGACGACUCGCCCGA
modifications: 2'-F pyrimidines
B33: VT30.40 (ssRNA)
RNA: GGGAGGACGAUGCGGAUUUGGAUGCAUGUCAAGGCGUUUUGCCCUCAGACGACUCGCCCGA
modifications: 2'-F pyrimidines
B34: VP30.13 (ssRNA)
RNA: GGGAGGACGAUGCGGGAUAACAGAAGAAUUGGUGAACAACGUGGUCAGACGACUCGCCCGA
modifications: 2'-F pyrimidines
B35: VP40.44 (ssRNA)
RNA: GGGAGGACGAUGCGGAUCUGUUGAACUGGGUUUUGCCGACGGUUACGCUUUUGCUCAGACGACUCGCCCGA
modifications: 2'-F pyrimidines
B36: VT30.28 (ssRNA)
RNA: GGGAGGACGAUGCGGAGAAUCAGUGAAUGCUUAUAAACCUCGUGUCAGACGACUCGCCCGA
modifications: 2'-F pyrimidines
B37: VP30.41 (ssRNA)
RNA: GGGAGGACGAUGCGGUAGGAAGUAUUGUAAGCGCCUCGUUUUCGCCAGACGACUCGCCCGA
modifications: 2'-F pyrimidines
B38: VP30.51 (ssRNA)
RNA: GGGAGGACGAUGCGGAGUUUUGGAAGAAUUGGAUGUUCCGAUCGUCAGACGACUCGCCCGA
modifications: 2'-F pyrimidines
B39: VT30.54 (ssRNA)
RNA: GGGAGGACGAUGCGGGACUAGGUGAAUGCCAAUAUUCUUCUCCGUCAGACGACUCGCCCGA
modifications: 2'-F pyrimidines
B40: VT30.52 (ssRNA)
RNA: GGGAGGACGAUGCGGAAGAAUUGAGCAUUCCUUCUCCUUGUGCCUCAGACGACUCGCCCGA
modifications: 2'-F pyrimidines
B41: VT30.12 (ssRNA)
RNA: GGGAGGACGAUGCGGUCUUUGGGUUUUUGCCAACGGUUUUCGCUCAGACGACUCGCCCGA
modifications: 2'-F pyrimidines
B42: VP30.1 (ssRNA)
RNA: B41 RNA with G22A
modifications: 2'-F pyrimidines
B43: VT30.44 (ssRNA)
RNA: GGGAGGACGAUGCGGAAUCAGUGAAUGCUUAUACAUCCGCUCGGUCAGACGACUCGCCCGA
modifications: 2'-F pyrimidines
B44: VT30.21 (ssRNA)
RNA: GGGAGGACGAUGCGGAUCAGUGAAUGCUUAUAGACCGUAUUGCGUCAGACGACUCGCCCGA
modifications: 2'-F pyrimidines
B45: VP40.41 (ssRNA)
RNA: GGGAGGACGAUGCGGCAAAUUCAAGGUCGAGUUAUGCGUAGAUGUGGCUCCUGUGCAGACGACUCGCCCGA
modifications: 2'-F pyrimidines
B46: VP30.19 (ssRNA)
RNA: GGGAGGACGAUGCGGCACUUUAGAAGAAUUGAAUUUCCCGCUGGUCAGACGACUCGCCCGA
modifications: 2'-F pyrimidines

Target: VEGF165 (Homo sapiens, UniProt P15692-4 P15692-4:27-191)
Sequence (P15692 other isoform, or with tags, fused parts or gaps): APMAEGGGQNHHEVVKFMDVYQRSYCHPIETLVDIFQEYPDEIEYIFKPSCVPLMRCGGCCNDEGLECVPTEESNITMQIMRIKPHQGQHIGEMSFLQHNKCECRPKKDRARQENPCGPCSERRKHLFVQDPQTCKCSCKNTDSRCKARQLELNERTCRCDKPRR
Assay: filter; 37 C
Details: tags: carrier-free, Sf 21 insect cell expressed, R & D Systems; chain copies: 2 (inferred)
Description: Nucleic Acid Ligands radiolabeled during transcription by incorporation of α-[³²P]-labeled NTPs, or after synthesis using γ-[³²P]-ATP and T4 polynucleotide kinase, were incubated in low concentration (between 20 and 70 pM) with varying concentrations of VEGF or other growth factors at 37° C. for 15 minutes. Incubations were in TBS, PBS, or HEPES-buffered saline (HBS), pH 7.4, with or without the addition of supplemental divalent cations. Samples were passed through prewashed 0.45 μ Type HA filters (Millipore) followed by a 5-10 ml wash with binding buffer. Filters were immersed in scintillant and counted to quantitate the amount of protein-bound RNA retained by each filter. The equilibrium dissociation constant (KD) of Nucleic Acid Ligand binding to a specific protein was calculated from the data points as described in Green et al. (1996) Biochem. 35: 14413-14424.

| Binder | Kd [nM] |
| --- | --- |
| B1 | 0.007 |
| B2 | 0.01 |
| B3 | 0.01 |
| B4 | 0.01 |
| B5 | 0.01 |
| B6 | 0.03 |
| B7 | 0.006 |
| B8 | 0.12 |
| B9 | 0.034 |
| B10 | 0.006 |
| B11 | 0.005 |
| B12 | 0.019 |
| B13 | 0.01 |
| B14 | 0.02 |
| B15 | 0.002 |
| B16 | 0.008 |
| B17 | 0.02 |
| B18 | 0.004 |
| B19 | 0.2 |
| B20 | 0.004 |
| B21 | 0.01 |
| B22 | 0.005 |
| B23 | 0.03 |

| Binder | Kd [nM] |
| --- | --- |
| B24 | 0.03 |
| B25 | 0.096 |
| B26 | 0.01 |
| B27 | 0.008 |
| B28 | 0.002 |
| B29 | 0.04 |
| B30 | 0.004 |
| B31 | 0.003 |
| B32 | 3 |
| B33 | 0.03 |
| B34 | 0.01 |
| B35 | 0.043 |
| B36 | 0.06 |
| B37 | 0.007 |
| B38 | 0.09 |
| B39 | 0.01 |
| B40 | 9 |
| B41 | 0.009 |
| B42 | 32 |
| B43 | 0.01 |
| B44 | 0.006 |
| B45 | 11 |
| B46 | 0.009 |
